Experimental data from patent US20200270125A1 (OMEROS, published 2020).
Substitutions are numbered along the chain they refer to.

T1: human MASP-3 CCP1-CCP2-SP fragment (human)
T1 chain: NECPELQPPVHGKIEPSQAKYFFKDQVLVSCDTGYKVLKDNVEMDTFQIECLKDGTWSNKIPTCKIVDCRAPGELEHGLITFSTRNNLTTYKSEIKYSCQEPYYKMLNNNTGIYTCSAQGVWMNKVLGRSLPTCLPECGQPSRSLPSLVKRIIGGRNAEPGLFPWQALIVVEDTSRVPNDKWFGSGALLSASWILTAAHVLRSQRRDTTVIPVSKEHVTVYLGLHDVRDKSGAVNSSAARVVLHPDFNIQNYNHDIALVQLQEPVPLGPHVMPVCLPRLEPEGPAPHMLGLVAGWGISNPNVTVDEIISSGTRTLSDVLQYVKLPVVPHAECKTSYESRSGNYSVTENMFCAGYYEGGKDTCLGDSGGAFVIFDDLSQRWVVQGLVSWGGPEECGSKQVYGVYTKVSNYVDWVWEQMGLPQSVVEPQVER

T2: human MASP-3 (construct not stated) (human)
T2 chain: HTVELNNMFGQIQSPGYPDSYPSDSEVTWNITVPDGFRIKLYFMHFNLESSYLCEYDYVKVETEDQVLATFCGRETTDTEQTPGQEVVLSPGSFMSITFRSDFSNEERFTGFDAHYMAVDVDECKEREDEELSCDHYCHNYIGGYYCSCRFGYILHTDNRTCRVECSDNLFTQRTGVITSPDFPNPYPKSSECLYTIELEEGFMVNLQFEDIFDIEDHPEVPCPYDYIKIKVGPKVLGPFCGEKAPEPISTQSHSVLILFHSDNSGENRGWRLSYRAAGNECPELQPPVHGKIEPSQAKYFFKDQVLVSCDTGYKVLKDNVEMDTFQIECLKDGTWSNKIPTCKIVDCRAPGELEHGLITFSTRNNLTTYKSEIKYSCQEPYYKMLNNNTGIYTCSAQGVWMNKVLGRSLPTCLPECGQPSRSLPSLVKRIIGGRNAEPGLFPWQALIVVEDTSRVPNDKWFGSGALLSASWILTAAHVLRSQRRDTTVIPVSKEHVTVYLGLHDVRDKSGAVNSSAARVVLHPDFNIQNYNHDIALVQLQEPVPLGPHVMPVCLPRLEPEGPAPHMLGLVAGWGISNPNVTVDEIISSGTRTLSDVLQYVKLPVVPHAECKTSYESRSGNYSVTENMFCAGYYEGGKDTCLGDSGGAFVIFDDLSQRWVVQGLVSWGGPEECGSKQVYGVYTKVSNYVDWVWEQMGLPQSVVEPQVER

T3: recombinant full-length mouse MASP-3 (mouse)
T3 construct: Entry is with leader; also called mouse full length MASP-3
T3 chain: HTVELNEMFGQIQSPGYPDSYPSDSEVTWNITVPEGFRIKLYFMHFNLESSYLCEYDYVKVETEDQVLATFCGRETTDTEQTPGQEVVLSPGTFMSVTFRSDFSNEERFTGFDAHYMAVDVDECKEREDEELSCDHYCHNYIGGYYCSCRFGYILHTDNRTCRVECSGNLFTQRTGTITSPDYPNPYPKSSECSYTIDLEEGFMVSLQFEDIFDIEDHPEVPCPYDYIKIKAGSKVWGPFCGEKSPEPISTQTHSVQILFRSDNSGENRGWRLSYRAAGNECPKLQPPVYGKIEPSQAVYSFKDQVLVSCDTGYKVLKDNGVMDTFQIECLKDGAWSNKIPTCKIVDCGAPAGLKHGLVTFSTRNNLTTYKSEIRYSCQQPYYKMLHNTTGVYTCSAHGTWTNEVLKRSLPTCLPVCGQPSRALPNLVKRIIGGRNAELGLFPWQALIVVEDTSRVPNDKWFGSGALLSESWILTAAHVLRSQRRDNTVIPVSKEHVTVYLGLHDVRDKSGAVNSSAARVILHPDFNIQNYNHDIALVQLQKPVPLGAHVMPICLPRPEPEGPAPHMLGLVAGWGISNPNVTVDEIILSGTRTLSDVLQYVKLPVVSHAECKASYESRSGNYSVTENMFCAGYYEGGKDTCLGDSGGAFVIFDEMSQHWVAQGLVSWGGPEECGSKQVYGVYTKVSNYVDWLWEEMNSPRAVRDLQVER

T4: recombinant human MASP-1A (S646A, CCP1-CCP2-SP fragment) (human, UniProt P48740 298-699, limits assumed)
T4 chain: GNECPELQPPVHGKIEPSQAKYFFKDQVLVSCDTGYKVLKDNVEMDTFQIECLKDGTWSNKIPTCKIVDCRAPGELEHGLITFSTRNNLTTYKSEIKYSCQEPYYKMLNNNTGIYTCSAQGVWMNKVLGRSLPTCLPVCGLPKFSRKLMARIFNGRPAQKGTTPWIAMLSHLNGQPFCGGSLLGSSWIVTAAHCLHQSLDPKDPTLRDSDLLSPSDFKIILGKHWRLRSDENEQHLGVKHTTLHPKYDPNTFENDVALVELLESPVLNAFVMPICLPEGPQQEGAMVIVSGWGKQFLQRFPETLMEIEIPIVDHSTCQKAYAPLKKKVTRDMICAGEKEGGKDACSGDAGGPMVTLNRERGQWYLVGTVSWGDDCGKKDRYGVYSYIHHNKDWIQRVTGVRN

B1: MASP-3 mAb 10D12 (mouse-human chimeric IgG4) (antibody, V domains shown)
VH: QIQLVQSGPELKKPGETVKISCKASGYIFTSYGMSWVRQAPGKGLKWMGWINTYSGVPTYADDFKGRFAFSLETSARTPYLQINNLKNEDTATYFCARGGEAMDYWGQGTSVTVSS
VL: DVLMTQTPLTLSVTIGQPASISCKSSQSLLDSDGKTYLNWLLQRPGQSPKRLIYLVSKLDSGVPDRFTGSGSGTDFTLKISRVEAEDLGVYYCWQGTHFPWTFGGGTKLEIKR
B2: MASP-3 mAb 1A10 (mouse-human chimeric IgG4) (antibody, V domains shown)
VH: QVQLKQSGPELVKPGASVKLSCKASGYTFTSNDINWVKQRPGQGLEWIGWIYPRDGTTKYNEKFTDKATLTVDVSSSTAFMELHRLTSEDSAVYFCSSVEDSYWGQGTLVTVSS
VL: DIVMTQSPSSLAVSAGEKVTMSCKSSQSLLISRTRKNYLSWYQQKPGQSPKLLIYWASTRESGVPDRFTGSGSGTDFTLTISSVQAEDLAVYYCKQSYNLYTFGGGTKLEIKR
notes: The light chain of 1A10 was not identified
B3: MASP-3 mAb 4D5 (mouse-human chimeric IgG4) (antibody, V domains shown)
VH: QVQLKQSGPELVKPGASVKLSCKASGYTFTTDDINWVKQRPGQGLEWIGWIYPRDDRTKYNDKFKDKATLTVDTSSNTAYMDLHSLTSEDSAVYFCSSLEDTYWGQGTLVAVSS
VL: B2 VL with S22T, I31N, S40A, T78S
B4: MASP-3 mAb 4B6 (mouse-human chimeric IgG4) (antibody, V domains shown)
VH: B2 VH with K63E, R85S
VL: B2 VL
B5: MASP-3 mAb 1F3 (mouse-human chimeric IgG4) (antibody, V domains shown)
VH: B2 VH with T57S, T58I, F80Y, R85S, S98G
VL: B2 VL with K18R
B6: MASP-3 mAb 1G4 (mouse-human chimeric IgG4) (antibody, V domains shown)
VH: QVQLKQSGAELMKPGASVKLACKATGYTFTGYWIEWIKQRPGQGLEWIGEMLPGSGSTHYNEKFKGKATFTADTSSNTAYMQLSGLTTEDSAIYYCVRSIDYWGQGTTLTVSS
VL: DVLMTQTPLSLPVSLGEQASISCRSSQSLVQSNGNTYLHWYLQKPGQSPKLLIYKVSNRFSGVPDRFSGSGSGTDFTLKISRVEAEDLGVYFCSQSTHVPPTFGGGTKLEIKR
B7: MASP-3 mAb 2D7 (mouse-human chimeric IgG4) (antibody, V domains shown)
VH: EVQLQQSGPELVKPGASVKVSCKASGYTLTDYYMNWVKQSHGKSLEWIGDVNPNNDGTTYNQKFKGRATLTVDKSSNTASMELRSLTSEDSAVYYCAICPFYYLGKGTHFDYWGQGTSLTVSS
VL: DIQMTQTPASLSASLGDRVTISCRASQDISNFLNWYQQKPNGTVKLLVFYTSRLHSGVPSRFSGSGSGAEHSLTISNLEQEDVATYFCQQGFTLPWTFGGGTKVEIKR

Biological target: T1, human MASP-3 CCP1-CCP2-SP fragment
Assay: cell-based or functional assay

inhibition of MASP-3-dependent fluorogenic tripeptide (BOC-V-P-R-AMC) cleavage [nM]	Binder
30.9	B1
29.8	B2
27.5	B3
26	B4
33	B5
29.6	B6

Biological target: T2, human MASP-3 (construct not stated)
Assay: cell-based or functional assay

Inhibition of Factor Bb Deposition on Zymosan (IC50 nM), 10% factor D-depleted human serum with pro-factor D [nM]	Binder
0.5	B1
0.4	B3
0.2	B4
0.1	B5
3.5	B7
1.1	B6

Biological target: T2, human MASP-3 (construct not stated)
Assay: cell-based or functional assay
Remark: another data set of the same source

Inhibition of Rabbit Erythrocyte Lysis (IC50 nM), 10% factor D-depleted human serum [nM]	Binder
0.2	B2
0.1	B3
0.2	B4
0.2	B5
5.4	B7
2.7	B6

Biological target: T2, human MASP-3 (construct not stated)
Assay: not described at this place

binding affinity [pM]	Binder
≤ 500	B1
≤ 500	B2
≤ 500	B3
≤ 500	B4
≤ 500	B5
≤ 500	B7
≤ 500	B6

Biological target: T1, human MASP-3 CCP1-CCP2-SP fragment
Assay: sandwich ELISA, MASP-3 CCP1-CCP2-SP captured by αM3-259
Protocol: (§1) The plate was then washed (PBS-T, 0.05%) and the candidate MASP-3 antibodies were added followed by incubation for one hour at room temperature. The plate was washed (PBS-T, 0.05%) and a detection antibody was added (mouse anti-human kappa-HRP, SouthernBiotech #9230-05) for one hour at room temperature. After another wash (PBS-T, 0.05%) the plate was developed (5 minutes) with OPT EIA TMB (BD Biosciences #555214). Absorbance reading at A450 was measured using the Spectramax M5e plate reader.

EC50 [pM]	Binder
89	B1
241	B2
58	B3
211	B4
236	B5
122	B7
177	B6

Biological target: T3, recombinant full-length mouse MASP-3
Assay: sandwich ELISA, full-length mouse MASP-3 captured by αM3-259
Protocol: as §1

EC50 [pM]	Binder
81	B1
150	B2
98	B3
188	B4
111	B5
3700	B6

biological target: T5, recombinant human MASP-2 (CCP1-CCP2-SP fragment) (human, UniProt O00187 298-686, limits assumed); assay: ELISA: recombinant MASP-2 (CCP1-CCP2-SP) coated directly on the plate, A450
T5 construct: domain: CCP1-CCP2-SP fragment
Protocol: as §1

T5 sequence (O00187 298-686 limits assumed): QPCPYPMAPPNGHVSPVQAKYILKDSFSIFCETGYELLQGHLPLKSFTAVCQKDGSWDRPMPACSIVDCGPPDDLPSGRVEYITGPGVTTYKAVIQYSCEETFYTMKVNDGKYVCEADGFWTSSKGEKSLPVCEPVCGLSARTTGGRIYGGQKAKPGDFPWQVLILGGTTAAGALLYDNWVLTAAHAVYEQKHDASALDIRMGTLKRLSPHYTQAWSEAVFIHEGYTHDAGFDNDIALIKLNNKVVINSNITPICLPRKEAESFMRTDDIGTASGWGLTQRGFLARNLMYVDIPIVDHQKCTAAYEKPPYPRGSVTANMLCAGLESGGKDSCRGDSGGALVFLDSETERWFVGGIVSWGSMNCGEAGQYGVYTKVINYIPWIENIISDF

Binder	binding result
B1	no binding (tested: about 20 nM (log10 about 1.3))
B2	no binding (tested: about 20 nM (log10 about 1.3))
B3	no binding (tested: about 20 nM (log10 about 1.3))
B4	no binding (tested: about 20 nM (log10 about 1.3))
B5	no binding (tested: about 20 nM (log10 about 1.3))
B7	no binding (tested: about 20 nM (log10 about 1.3))
B6	no binding (tested: about 20 nM (log10 about 1.3))

Biological target: T4, recombinant human MASP-1A (S646A, …)
Assay: ELISA: recombinant MASP-1A (S646A, CCP1-CCP2-SP) coated directly on the plate, A450
Protocol: as §1

Binder	binding result
B1	no binding (tested: about 20 nM (log10 about 1.3))
B2	no binding (tested: about 20 nM (log10 about 1.3))
B3	no binding (tested: about 20 nM (log10 about 1.3))
B4	no binding (tested: about 20 nM (log10 about 1.3))
B5	no binding (tested: about 20 nM (log10 about 1.3))
B7	no binding (tested: about 20 nM (log10 about 1.3))
B6	no binding (tested: about 20 nM (log10 about 1.3))

Biological target: T1, human MASP-3 CCP1-CCP2-SP fragment
Assay: sandwich ELISA: human MASP-3 CCP1-CCP2-SP captured on aM3-259, mAb detected with anti-human kappa-HRP, A450
Protocol: as §1

EC50 [pM]	Binder
23	B1
113	B3
